Test results: publication PMC4749184, “Viral Replication Protein Inhibits Cellular Cofilin Actin Depolymerization Factor to Regulate the Actin Network and Promote Viral Replicase Assembly” (PLoS Pathogens, 2016)

B1: Rpn11 deubiquitinase (enzyme, yeast (S. cerevisiae), UniProt P43588 1-306, looked up)
chain: MERLQRLMMNSKVGSADTGRDDTKETVYISSIALLKMLKHGRAGVPMEVMGLMLGEFVDDYTVNVVDVFAMPQSGTGVSVEAVDDVFQAKMMDMLKQTGRDQMVVGWYHSHPGFGCWLSSVDVNTQKSFEQLNSRAVAVVVDPIQSVKGKVVIDAFRLIDTGALINNLEPRQTTSNTGLLNKANIQALIHGLNRHYYSLNIDYHKTAKETKMLMNLHKEQWQSGLKMYDYEEKEESNLAATKSMVKIAEQYSKRIEEEKELTEEELKTRYVGRQDPKKHLSETADETLENNIVSVLTAGVNSVAIK
notes: Rpn11 deubiquitinase, cellular host factor in yeast; source: yeast (act1-132 ts and WT), co-purified with p33
B2: His6-tagged Osh6 protein (yeast Osh6p ORP) (natural protein, yeast (S. cerevisiae), UniProt Q02201 1-448, looked up)
chain: MGSKKLTVGSDSHRLSKSSFSSNKSSHSATKDQPIDTDDIDEDDESGHNIILNIISQLRPGCDLTRITLPTFILEKKSMLERVTNQLQFPEFLLQAHSEKDPLKRFLYVMKWYLAGWHIAPKAVKKPLNPVLGEYFTAYWDLPNKQQAYYISEQTSHHPPECAYFYMIPESSIRVDGVVIPKSRFLGNSSAAMMDGSTVLQFLDIKDGNGKPEKYVLTQPNVYVRGILFGKMRIELGDHMIIKSPNFQADIEFKTKGYVFGTYDAIEGTVKDYDGNAYYEISGKWNDVMYLKDLKQPRSSPKVFLDTHKESPLRPKVRPLSEQGEYESRKLWKKVTDALAVRNHPVATEEKFQIEDHQRQLAKKRIEDGVEFHPKLFRRSKPGEDLDYCIYKNIPVDEDPEKQIRSILQIAPILPGQQFTDKFFIPAFEKIKSQKKMIENEKQNPAKQ
notes: also called Osh6 ORP; 6xHis-Osh6p; source: yeast, GAL1 promoter (UpYC-NT-Gal1-OSH6), in detergent-solubilized membrane fraction
B3: 6xHis-Vap27-1 (VAP protein, Scs2-like plant ortholog) (natural protein, UniProt Q8VZ95 1-256, looked up)
chain: MSNIDLIGMSNRDLIGMSNSELLTVEPLDLQFPFELKKQISCSLYLTNKTDNNVAFKVKTTNPKKYCVRPNTGVVLPRSTCEVLVTMQAQKEAPSDMQCKDKFLLQGVIASPGVTAKEVTPEMFSKEAGHRVEETKLRVTYVAPPRPPSPVHEGSEEGSSPRASVSDNGHGSEFSFERFIVDNKAGHQENTSEARALITKLTEEKQSAIQLNNRLQRELDQLRRESKKSQSGGIPFMYVLLVGLIGLILGYIMKRT
notes: Vap27-1, VAMP-associated protein, a plant ortholog of yeast Scs2p; also called Vap27-1 (Scs2-like); ER-localized Vap27-1; source: expressed in yeast, in detergent-solubilized membrane fraction
B4: Pbp2 RNA binding protein (natural protein, yeast (S. cerevisiae), UniProt P38151 1-413, looked up)
chain: MSTETTKPSITTTPTTVLVSPNTLKRKKGEDTSEEQLEAEIKRVALKDADSHSDNDHDSPDNVPSDVHLRMLCLVKHASLIVGHKGATISRIKSETSARINISNNIRGVPERIVYVRGTCDDVAKAYGMIVRALLEEHGNEDNGEDIEISINLLIPHHLMGCIIGKRGSRLREIEDLSAAKLFASPNQLLLSNDRILTINGVPDAIHIATFYISQTLLNFQMESPQKNVKRSIYYQPTQFNSVLIDHSQPNTIFHQRNHQYHPSDKLLSYKPNKNLPISSTLLSMATPQYTTASVANATAFQPNFVIPNVTVLDGPVISPAPGNHLLMNFVQQEIFIDEKFVGNVIGKDGKHINSVKESTGCSIIIQDPVEGSSERRLTIRGTFMASQAAIMLISNKIEIDRSNAERKRRSPL
notes: source: yeast (act1-132 ts and WT), co-purified with p33
B5: Vps23 ESCRT I (Vps23p ESCRT factor) (natural protein, yeast (S. cerevisiae), UniProt P25604 1-385, looked up)
chain: MSANGKISVPEAVVNWLFKVIQPIYNDGRTTFHDSLALLDNFHSLRPRTRVFTHSDGTPQLLLSIYGTISTGEDGSSPHSIPVIMWVPSMYPVKPPFISINLENFDMNTISSSLPIQEYIDSNGWIALPILHCWDPAAMNLIMVVQELMSLLHEPPQDQAPSLPPKPNTQLQQEQNTPPLPPKPKSPHLKPPLPPPPPPQPASNALDLMDMDNTDISPTNHHEMLQNLQTVVNELYREDVDYVADKILTRQTVMQESIARFHEIIAIDKNHLRAVEQAIEQTMHSLNAQIDVLTANRAKVQQFSSTSHVDDEDVNSIAVAKTDGLNQLYNLVAQDYALTDTIECLSRMLHRGTIPLDTFVKQGRELARQQFLVRWHIQRITSPLS
notes: Vps23p, ESCRT-I factor, cellular host factor in yeast; source: yeast (act1-132 ts and WT), co-purified with p33
B6: Tef1 eEF1A (Tef1p) (natural protein, yeast (S. cerevisiae), UniProt P02994 1-458, looked up)
chain: MGKEKSHINVVVIGHVDSGKSTTTGHLIYKCGGIDKRTIEKFEKEAAELGKGSFKYAWVLDKLKAERERGITIDIALWKFETPKYQVTVIDAPGHRDFIKNMITGTSQADCAILIIAGGVGEFEAGISKDGQTREHALLAFTLGVRQLIVAVNKMDSVKWDESRFQEIVKETSNFIKKVGYNPKTVPFVPISGWNGDNMIEATTNAPWYKGWEKETKAGVVKGKTLLEAIDAIEQPSRPTDKPLRLPLQDVYKIGGIGTVPVGRVETGVIKPGMVVTFAPAGVTTEVKSVEMHHEQLEQGVPGDNVGFNVKNVSVKEIRRGNVCGDAKNDPPKGCASFNATVIVLNHPGQISAGYSPVLDCHTAHIACRFDELLEKNDRRSGKKLEDHPKFLKSGDAALVKFVPSKPMCVEAFSEYPPLGRFAVRDMRQTVAVGVIKSVDKTEKAAKVTKAAQKAAKK
notes: Tef1p, eukaryotic elongation factor 1A, cellular host factor in yeast; source: yeast (act1-132 ts and WT), co-purified with p33
B7: Cdc34 E2 enzyme (ubiquitin-conjugating enzyme) (enzyme, yeast (S. cerevisiae), UniProt P14682 1-295, looked up)
chain: MSSRKSTASSLLLRQYRELTDPKKAIPSFHIELEDDSNIFTWNIGVMVLNEDSIYHGGFFKAQMRFPEDFPFSPPQFRFTPAIYHPNVYRDGRLCISILHQSGDPMTDEPDAETWSPVQTVESVLISIVSLLEDPNINSPANVDAAVDYRKNPEQYKQRVKMEVERSKQDIPKGFIMPTSESAYISQSKLDEPESNKDMADNFWYDSDLDDDENGSVILQDDDYDDGNNHIPFEDDDVYNYNDNDDDDERIEFEDDDDDDDDSIDNDSVMDRKQPHKAEDESEDVEDVERVSKKI
notes: Cdc34 ubiquitin-conjugating enzyme, cellular host factor in yeast; source: yeast (act1-132 ts and WT), co-purified with p33
B8: Vps4 AAA ATPase (Vps4p) (enzyme, yeast (S. cerevisiae), UniProt P52917 1-437, looked up)
chain: MSTGDFLTKGIELVQKAIDLDTATQYEEAYTAYYNGLDYLMLALKYEKNPKSKDLIRAKFTEYLNRAEQLKKHLESEEANAAKKSPSAGSGSNGGNKKISQEEGEDNGGEDNKKLRGALSSAILSEKPNVKWEDVAGLEGAKEALKEAVILPVKFPHLFKGNRKPTSGILLYGPPGTGKSYLAKAVATEANSTFFSVSSSDLVSKWMGESEKLVKQLFAMARENKPSIIFIDEVDALTGTRGEGESEASRRIKTELLVQMNGVGNDSQGVLVLGATNIPWQLDSAIRRRFERRIYIPLPDLAARTTMFEINVGDTPCVLTKEDYRTLGAMTEGYSGSDIAVVVKDALMQPIRKIQSATHFKDVSTEDDETRKLTPCSPGDDGAIEMSWTDIEADELKEPDLTIKDFLKAIKSTRPTVNEDDLLKQEQFTRDFGQEGN
notes: Vps4p AAA ATPase, cellular host factor in yeast; source: yeast (act1-132 ts and WT), co-purified with p33
B9: Tdh2 GAPDH (Tdh2p) (enzyme, yeast (S. cerevisiae), UniProt P00358 1-332, looked up)
chain: MVRVAINGFGRIGRLVMRIALQRKNVEVVALNDPFISNDYSAYMFKYDSTHGRYAGEVSHDDKHIIVDGHKIATFQERDPANLPWASLNIDIAIDSTGVFKELDTAQKHIDAGAKKVVITAPSSTAPMFVMGVNEEKYTSDLKIVSNASCTTNCLAPLAKVINDAFGIEEGLMTTVHSMTATQKTVDGPSHKDWRGGRTASGNIIPSSTGAAKAVGKVLPELQGKLTGMAFRVPTVDVSVVDLTVKLNKETTYDEIKKVVKAAAEGKLKGVLGYTEDAVVSSDFLGDSNSSIFDAAAGIQLSPKFVKLVSWYDNEYGYSTRVVDLVEHVAKA
notes: Tdh2p, glyceraldehyde-3-phosphate dehydrogenase, cellular host factor in yeast; source: yeast (act1-132 ts and WT), co-purified with p33

Target: T1, FLAG-tagged p33 replication protein (Tomato bushy stunt virus, UniProt P15962 1-296)
T1 construct: p33 replication protein of Tomato bushy stunt virus (tombusvirus); also called FLAG-p33; source: yeast (BY4741, cof1 ts and act1 ts strains), CUP1 promoter, in detergent-solubilized membrane fraction
T1 sequence: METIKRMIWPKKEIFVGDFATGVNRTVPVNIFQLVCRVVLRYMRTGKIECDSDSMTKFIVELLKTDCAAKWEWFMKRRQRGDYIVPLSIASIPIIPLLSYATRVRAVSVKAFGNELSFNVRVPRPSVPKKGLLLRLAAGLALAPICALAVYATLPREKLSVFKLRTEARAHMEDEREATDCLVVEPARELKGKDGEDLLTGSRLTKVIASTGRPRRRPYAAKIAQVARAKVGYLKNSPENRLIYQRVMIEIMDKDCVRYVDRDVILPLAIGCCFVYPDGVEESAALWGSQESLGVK
Experiment: co-IP; FLAG-affinity column purification of FLAG-p33 (co-expressed with FLAG-p92) from detergent-solubilized membrane fraction of yeast after cross-linking with 1% formaldehyde for 1 h on ice; co-purified His6-tagged host proteins detected by Western blot with anti-His antibody; yeast expressing His6-p33 as control; WT (BY4741), cof1-8 ts, cof1-22 ts, act1-121 ts, act1-132 ts, act1-105 ts and act1-112 ts yeasts at …
Settings: partners not purified

Binder	co-purified with p33 from act1-132 yeast, percent of co-purification from WT yeast [%]
B1	161
B2	258
B3	218
B4	85
B5	108
B6	96
B7	207
B8	53
B9	111
